From PMC3328386 (The Journal of Cell Biology, 2012)

Tests used:
recombinant SUMO1 = recombinant SUMO1 (UniProt P63165 1-97); experiment: ITC
recombinant SUMO2 = recombinant SUMO2 (UniProt P61956 1-95); experiment: ITC
Sequence of recombinant SUMO2 (P61956 whole entry): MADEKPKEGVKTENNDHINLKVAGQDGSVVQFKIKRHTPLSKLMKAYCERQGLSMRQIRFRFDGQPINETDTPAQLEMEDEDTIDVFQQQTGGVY

Sequence of recombinant SUMO1 (P63165 1-97): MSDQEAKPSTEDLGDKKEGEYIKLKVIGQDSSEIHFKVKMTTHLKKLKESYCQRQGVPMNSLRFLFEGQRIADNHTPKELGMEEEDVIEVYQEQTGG

Kd (recombinant SUMO1): ~3 µM | Kd (recombinant SUMO2): ~60 µM
B1: recombinant HERC2 ZZ domain (amino acids 2702–2755), WT (domain or fragment)
chain: IHPGVTCDGCQMFPINGSRFKCRNCDDFDFCETCFKTKKHNTRHTFGRINEPGQ
